The sequences below were run on Escherichia coli TOP10 (assay: shrunken log2 fold change of peptide-encoding DNA abundance (4.5 h post-induction vs induction); higher = less antimicrobial activity (less host growth inhibition)). Details: time post-induction: 4.5 h; library: site-saturation at positions 5, 18, 19, 20.
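Note: peptides expressed intracellularly from a pBAD plasmid library in pooled LB shake-flask culture, induced with 0.3% L-arabinose, DNA abundance read by NGS, three biological replicates, DESeq2 with apeglm shrinkage.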

Row | Sequence | shrunken log2 fold change
1 | RRIRYRPPRLPRPRPRPAFHPRP | -0.518
2 | RRIRYRPPRLPRPRPRPAHEPRP | 0.241
3 | RRIRYRPPRLPRPRPRPAHHPRP | -0.602
4 | RRIRYRPPRLPRPRPRPAHMPRP | -0.015
5 | RRIRYRPPRLPRPRPRPAHNPRP | -0.409
6 | RRIRYRPPRLPRPRPRPAHYPRP | -0.18
7 | RRIRYRPPRLPRPRPRPALDPRP | -0.132
8 | RRIRYRPPRLPRPRPRPANVPRP | -0.00291
9 | RRIRYRPPRLPRPRPRPAPMPRP | -0.0449
10 | RRIRYRPPRLPRPRPRPAQCPRP | -0.0254
11 | RRIRYRPPRLPRPRPRPAQDPRP | 0.188
12 | RRIRYRPPRLPRPRPRPAQRPRP | -0.0772
13 | RRIRYRPPRLPRPRPRPARIPRP | 0.0141
14 | RRIRYRPPRLPRPRPRPASAPRP | 0.0949
15 | RRIRYRPPRLPRPRPRPASEPRP | -0.0202
16 | RRIRYRPPRLPRPRPRPASKPRP | -1.29e-05
17 | RRIRYRPPRLPRPRPRPATPPRP | 0.158
18 | RRIRYRPPRLPRPRPRPAVGPRP | 0.0398
19 | RRIRYRPPRLPRPRPRPAVPPRP | -0.625
20 | RRIRYRPPRLPRPRPRPCAVPRP | -0.269
21 | RRIRYRPPRLPRPRPRPCCNPRP | 0.00367
22 | RRIRYRPPRLPRPRPRPCCRPRP | -0.732

Row | Sequence | shrunken log2 fold change
23 | RRIRYRPPRLPRPRPRPCFVPRP | -1.09
24 | RRIRYRPPRLPRPRPRPCGGPRP | 0.00427
25 | RRIRYRPPRLPRPRPRPCHVPRP | -0.0447
26 | RRIRYRPPRLPRPRPRPCLEPRP | 0.139
27 | RRIRYRPPRLPRPRPRPCLGPRP | -0.231
28 | RRIRYRPPRLPRPRPRPCMDPRP | -0.214
29 | RRIRYRPPRLPRPRPRPCMMPRP | 0.00911
30 | RRIRYRPPRLPRPRPRPCMYPRP | -0.101
31 | RRIRYRPPRLPRPRPRPCPLPRP | -1.91
32 | RRIRYRPPRLPRPRPRPCTQPRP | -1.32
33 | RRIRYRPPRLPRPRPRPCVGPRP | -1.87
34 | RRIRYRPPRLPRPRPRPCWCPRP | -0.0193
35 | RRIRYRPPRLPRPRPRPCWQPRP | 0.013
36 | RRIRYRPPRLPRPRPRPCWTPRP | -0.374
37 | RRIRYRPPRLPRPRPRPCYCPRP | -0.185
38 | RRIRYRPPRLPRPRPRPCYPPRP | -0.37
39 | RRIRYRPPRLPRPRPRPDACPRP | -0.045
40 | RRIRYRPPRLPRPRPRPDAEPRP | -0.0535
41 | RRIRYRPPRLPRPRPRPDDFPRP | -0.0153
42 | RRIRYRPPRLPRPRPRPDEPPRP | -0.0449
43 | RRIRYRPPRLPRPRPRPDFNPRP | -1.62
44 | RRIRYRPPRLPRPRPRPDHDPRP | -0.133

Row | Sequence | shrunken log2 fold change
45 | RRIRYRPPRLPRPRPRPDHSPRP | -0.889
46 | RRIRYRPPRLPRPRPRPDIHPRP | -0.549
47 | RRIRYRPPRLPRPRPRPDIKPRP | -0.602
48 | RRIRYRPPRLPRPRPRPDILPRP | 0.0101
49 | RRIRYRPPRLPRPRPRPDMTPRP | -0.149
50 | RRIRYRPPRLPRPRPRPDPHPRP | -0.356
51 | RRIRYRPPRLPRPRPRPDPTPRP | -0.435
52 | RRIRYRPPRLPRPRPRPDQIPRP | 0.0304
53 | RRIRYRPPRLPRPRPRPDRAPRP | -0.0598
54 | RRIRYRPPRLPRPRPRPDRMPRP | -0.566
55 | RRIRYRPPRLPRPRPRPDSRPRP | -0.0156
56 | RRIRYRPPRLPRPRPRPDSSPRP | -0.0431
57 | RRIRYRPPRLPRPRPRPEFEPRP | -0.00195
58 | RRIRYRPPRLPRPRPRPEFHPRP | 0.00393
59 | RRIRYRPPRLPRPRPRPEFNPRP | -0.221
60 | RRIRYRPPRLPRPRPRPEFRPRP | -0.0207
61 | RRIRYRPPRLPRPRPRPEFTPRP | -0.0369
62 | RRIRYRPPRLPRPRPRPEGMPRP | 0.0329
63 | RRIRYRPPRLPRPRPRPEHMPRP | -0.304
64 | RRIRYRPPRLPRPRPRPELDPRP | -0.165
65 | RRIRYRPPRLPRPRPRPEMDPRP | -0.338
66 | RRIRYRPPRLPRPRPRPEMHPRP | 2.42

Row | Sequence | shrunken log2 fold change
67 | RRIRYRPPRLPRPRPRPEPNPRP | -0.0357
68 | RRIRYRPPRLPRPRPRPEPWPRP | 0.00405
69 | RRIRYRPPRLPRPRPRPERIPRP | -0.21
70 | RRIRYRPPRLPRPRPRPERKPRP | -0.109
71 | RRIRYRPPRLPRPRPRPETCPRP | -0.00674
72 | RRIRYRPPRLPRPRPRPETEPRP | 0.0184
73 | RRIRYRPPRLPRPRPRPETPPRP | 0.156
74 | RRIRYRPPRLPRPRPRPETSPRP | 0.014
75 | RRIRYRPPRLPRPRPRPETVPRP | -0.0477
76 | RRIRYRPPRLPRPRPRPEVIPRP | -0.01
77 | RRIRYRPPRLPRPRPRPEYQPRP | -0.00141
78 | RRIRYRPPRLPRPRPRPEYSPRP | -0.0605
79 | RRIRYRPPRLPRPRPRPFAQPRP | -0.159
80 | RRIRYRPPRLPRPRPRPFCNPRP | -0.0455
81 | RRIRYRPPRLPRPRPRPFEWPRP | 0.0273
82 | RRIRYRPPRLPRPRPRPFFFPRP | -0.253
83 | RRIRYRPPRLPRPRPRPFFGPRP | -0.225
84 | RRIRYRPPRLPRPRPRPFFKPRP | -0.518
85 | RRIRYRPPRLPRPRPRPFFSPRP | -0.77
86 | RRIRYRPPRLPRPRPRPFIFPRP | -1.01
87 | RRIRYRPPRLPRPRPRPFIWPRP | -0.2
88 | RRIRYRPPRLPRPRPRPFKHPRP | -0.349

Row | Sequence | shrunken log2 fold change
89 | RRIRYRPPRLPRPRPRPFLLPRP | -1.19
90 | RRIRYRPPRLPRPRPRPFMMPRP | -0.108
91 | RRIRYRPPRLPRPRPRPFNMPRP | -0.202
92 | RRIRYRPPRLPRPRPRPFPEPRP | -0.423
93 | RRIRYRPPRLPRPRPRPFPQPRP | -0.137
94 | RRIRYRPPRLPRPRPRPFQKPRP | -0.0884
95 | RRIRYRPPRLPRPRPRPFRFPRP | -0.83
96 | RRIRYRPPRLPRPRPRPFSAPRP | -1.07
97 | RRIRYRPPRLPRPRPRPFSMPRP | -0.00208
98 | RRIRYRPPRLPRPRPRPFSRPRP | -0.625
99 | RRIRYRPPRLPRPRPRPFTDPRP | -0.583
100 | RRIRYRPPRLPRPRPRPFTNPRP | 0.0209
101 | RRIRYRPPRLPRPRPRPFVCPRP | -0.0345
102 | RRIRYRPPRLPRPRPRPFWMPRP | -0.297
103 | RRIRYRPPRLPRPRPRPFYFPRP | -0.961
104 | RRIRYRPPRLPRPRPRPGAHPRP | -0.818
105 | RRIRYRPPRLPRPRPRPGDMPRP | -0.464
106 | RRIRYRPPRLPRPRPRPGFHPRP | -0.564
107 | RRIRYRPPRLPRPRPRPGFKPRP | -0.579
108 | RRIRYRPPRLPRPRPRPGGNPRP | -0.0562
109 | RRIRYRPPRLPRPRPRPGGYPRP | -0.00146

From the supplement of paper PMC9112550, “Optimization of the antimicrobial peptide Bac7 by deep mutational scanning” (BMC Biology, 2022)
